Test results: article PMC11363490, “Structural and biochemical characterization of cauliflower mosaic virus reverse transcriptase”

Legend:
[1] = biological target: CaMV RT RNase H mutant D421N (cauliflower mosaic virus)
[2] = biological target: CaMV RT (Cauliflower mosaic virus, UniProt A0A2D2PYL0 197-675); assay: gel filtration; 5 mM MgCl2; stable 1:1 complex; Gel filtration: 25 mM Hepes pH 7.5, 200 mM NaCl, 5% glycerol, 5 mM MgCl2, 1 mM DTT, 30 min on ice; crystals: protein in 20 mM Hepes pH 7.5, 200 mM NaCl, 5% glyc; conditions: protein: recombinant; tags: none (N-terminal 6xHis-SUMO removed with Ulp1); 5' overhang 2 nt on RNA strand (GG), 22 bp

Row | Molecule | RNase H cleavage efficiency on R40/D28, 1:1:1 mixture of wt RT:mutant RT:substrate, 120 min (against ∼18% for 1:1 wt enzyme:substrate) [1] [%] | binding result [2]
1 | cauliflower mosaic virus (CaMV) reverse transcriptase, wild type (from UniProt P03554 1-679) (enzyme) | 60 | 
2 | RNA-24/DNA-22 hybrid (DNA:RNA) RNA: GGCAGUGGUCCAGCAGUGCGUAGC DNA: GCTACGCACTGCTGGACCACTG |  | binds
